Results published in patent US20200277369A1 (Novartis, published 2020).

Target: T1, human homodimer IL-17A (human, UniProt Q16552 24-155)
T1 construct: Homodimer as printed; also called interleukin-17A
Experiment: not stated (affinity given in running text of Example 1, no method)

T1 sequence (Q16552 24-155 limits assumed): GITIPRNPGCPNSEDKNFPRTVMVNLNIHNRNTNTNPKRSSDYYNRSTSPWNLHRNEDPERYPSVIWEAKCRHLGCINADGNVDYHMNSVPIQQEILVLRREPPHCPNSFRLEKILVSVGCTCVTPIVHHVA

- Kd: 6 pM
B1: CJM112 (antibody, V domains shown)
VH: EVQLVESGGDLVQPGGSLRLSCAASGFTFSSYWMSWVRQAPGKGLEWVANIKQDGSEKYYVDSVKGRFTISRDNAKNSLYLQMNSLRAEDTAVYYCARDRGSLYYWGQGTLVTVSS
VL: AIQLTQSPSSLSASVGDRVTITCRPSQGINWELAWYQQKPGKAPKLLIYDASSLEQGVPSRFSGSGSGTDFTLTISSLQPEDFATYYCQQFNSYPLTFGGGTKVEIK
